From US20230243823, “BIOMARKER SENSOR-BASED DETECTION OF DISEASE-SPECIFIC BIOMARKERS” (FORSCHUNGSZENTRUM JÜLICH GMBH, published 2023)

Target: lactate dehydrogenase (PfLDH) (Plasmodium falciparum, UniProt Q76NM3 Q76NM3:1-316)
Experiment: sandwich plasmon-enhanced fluorescence apta-immunosensor; PfLDH captured by anti-pLDH on AuNPs from diluted human blood; 0.1 uM aptamer in 10 mM PBS with 1 mM MgCl2 pH 7.1; signal orders of magnitude above PvLDH
Settings: tags: obtained by bacterial expression; chain copies: 4
Protocol: Uninfected human blood was diluted 1:100 in 25 mM Tris buffer to reduce sample turbidity. The desired amount of Plasmodium falciparum lactate dehydrogenase (P<DH) was added to 1 ml of a diluted solution of the sample to obtain analyte concentrations ranging from 1 fM to 1 μm (based on the undiluted blood). The functionalised substrates were incubated with 1 ml of contaminated blood solution for 2 hours at room temperature.
The specificity of the apta immunosensor was tested against lactate dehydrogenase of Plasmodium vivax (P<LDH), which is 90% identical to P<LDH. The P<LDH was added to uninfected human blood (diluted 1:100 in 1 mL 25 mM Tris buffer) to obtain the highest analyte concentration tested in the calibration curve (1 μM based on undiluted whole blood).

B1: malaria 2008s aptamer (ssDNA)
DNA: CTGGGCGGTAGAACCATAGTGACCCAGCCGTCTAC
binding result: binds
